For 116 sequences, protein stability index results are on record in the supplement of paper PMC10724198.

± gives the standard deviation of the averaged measurements.
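Further: PSI is a weighted mean of sequencing reads over stability bins, variants kept only with over 10 reads, mCherry proximal and sfGFP distal, peptide attached via GGGS linker.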

The data set concerns Saccharomyces cerevisiae. The experiment in a line: protein stability index of tFT-peptide fusion (C-terminal peptide) (PSI (0-1 scale)); higher = more stable (slower turnover). The conditions noted are these: genetic background: wild type; temperature: 30 C.
Sequence HCSWRSLMTLAG showed a protein stability index of 0.642 ± 0.031. As to HCVRVEWVEGRR, the protein stability index amounted to 0.668 ± 0.023. HDGIQVSVRRRT showed a protein stability index of 0.67 ± 0.011. HFSSLDPFLPSL had a protein stability index of 0.712 ± 0.016. For HGFHSPPSDLPT, the protein stability index is 0.724 ± 0.15. The result for HGLPPPLPPLRS reads 0.689 ± 0.019. As for HGSRGGIINEEG, the figure is 0.642 ± 0.082; as for HGYRWCLHARFG, 0.556 ± 0.058. HHPSPPSPSPAC: the protein stability index amounted to 0.698 ± 0.018. In turn, HIGDLRDSCFIS returned a protein stability index of 0.693 ± 0.031. HIIRGDCVGVLG came in with a protein stability index of 0.618 ± 0.017. For HILDHVTSSLSF, the protein stability index amounted to 0.66 ± 0.011. Consider HILINTCSCASL, for which the protein stability index stood at 0.546 ± 0.044. Take HISSFPSPPPPV: the protein stability index was found to be 0.711 ± 0.054. HIVSRKYNYPCT returned a protein stability index of 0.739 ± 0.088.

Consider HKEYGTTCYGYR, for which the protein stability index stood at 0.691 ± 0.049. Regarding HLCVDHLGCHSF, the protein stability index is 0.703 ± 0.048.

For the sequence HLFWSRGICFFR, the protein stability index is 0.631 ± 0.062. HLHGKTERPSHL registered a protein stability index of 0.811 ± 0.058. Sequence HLIRRGGSQTWT showed a protein stability index of 0.713 ± 0.049. In turn, HLLLLSLVFFFW came in with a protein stability index of 0.744 ± 0.017. HLSLPTRAPIRH returned a protein stability index of 0.696 ± 0.019.

In turn, HMCSTYGKLRLD came in with a protein stability index of 0.622 ± 0.052. As for HMLVCPLAALGI, the figure is 0.6884 ± 0.0031; as for HPAGPSGRLLPT, 0.685 ± 0.0095. HPETIGHNVRPR showed a protein stability index of 0.708 ± 0.048. For the sequence HPFARGPLSRHP, the protein stability index was 0.7 ± 0.081. In the case of HPIPHDVSGRRN, the protein stability index is 0.784 ± 0.1.

Regarding HPPITPYLHRRT, the protein stability index stood at 0.724 ± 0.17.

Consider HPPPCLSLPSSP, for which the protein stability index was determined as 0.731 ± 0.095. Take HPPPETEPIPVA: the protein stability index came to 0.574 ± 0.066. The result for HPPPSPRPPPPP reads 0.691 ± 0.039; that for HPSNMYSGDEAP, 0.68 ± 0.01; that for HPSPPPPPPFPT, 0.748 ± 0.038. In turn, HQYLGMCLDRPV gave a protein stability index of 0.6455 ± 0.0054. As for HRASFRIGFRTF, the figure is 0.758 ± 0.033. For HRCLCGCLDSVV, the protein stability index turned out to be 0.726 ± 0.028. In turn, HRDPRFSRCSTC came in with a protein stability index of 0.69 ± 0.034.

HREGTTAFFKTH returned a protein stability index of 0.536 ± 0.013. HRLMDTNFSRSP displayed a protein stability index of 0.743 ± 0.061.

HRLTGMRKRGRG registered a protein stability index of 0.658 ± 0.066. In the case of HRLWAGWGLEQC, the protein stability index came to 0.712 ± 0.013. As for HRPDGTSRKSGA, the protein stability index amounted to 0.662 ± 0.024. As to HRRCPVPRGSSP, the protein stability index was determined as 0.704 ± 0.019.

HRYRAFPLASSR showed a protein stability index of 0.618 ± 0.056. HSASSDAGIKVR came in with a protein stability index of 0.718 ± 0.0083. HSFPSTLRRCFL returned a protein stability index of 0.731 ± 0.095. Consider HSHIPPNLTYCP, for which the protein stability index amounted to 0.69396 ± 0.00029. The sequence HSIPPPRRHPTI yielded a protein stability index of 0.742 ± 0.025.

The sequence HSPPAGPPHTKT gave a protein stability index of 0.6694 ± 0.0039.

Sequence HSPPPPFSPFSP registered a protein stability index of 0.667 ± 0.024. Sequence HSPSSLCHPSTG returned a protein stability index of 0.727 ± 0.098. The result for HSRGGEPLTPAW reads 0.642 ± 0.092; that for HSSPPPAPPPLP, 0.697 ± 0.019; that for HSSSGTHRIKKT, 0.667 ± 0.052. As for HTKYISRRRTKR, the figure is 0.706 ± 0.013. On to HTPTLPLHPPRY, for which the protein stability index worked out at 0.642 ± 0.037. Sequence HTTMVGVAEGWV had a protein stability index of 0.686 ± 0.049. For HTVPTLLPPNVP, the protein stability index is 0.665 ± 0.015. The result for HVAYAQSRLFYA reads 0.638 ± 0.094. The result for HVLRMFTGFLFC reads 0.624 ± 0.044; that for HVRVGRGLAVMC, 0.528 ± 0.027; that for HVYDQLLSGAVA, 0.691 ± 0.017. As for HWVVRGGSRRVV, the figure is 0.7056 ± 0.0045; as for HYDTHQTPQTSP, 0.667 ± 0.023; as for IACLDVLRRALF, 0.627 ± 0.016. The sequence IADDSSHGFRGE yielded a protein stability index of 0.7161 ± 0.0064.

In turn, IAKKNKTSKNRK showed a protein stability index of 0.703 ± 0.025. Sequence IALLGCFRVNGN returned a protein stability index of 0.638 ± 0.095.

Take IAQDLEPACIKG: the protein stability index came out at 0.695 ± 0.021. As for IATPQNPRRTKA, the figure is 0.714 ± 0.045; as for IAVPFMPADLSF, 0.718 ± 0.0089. As for IAVSSHPVLVCK, the protein stability index worked out at 0.5961 ± 0.0029. As for IAWGNEISHSLF, the figure is 0.72 ± 0.066; as for ICGGTNFPLGSV, 0.741 ± 0.032; as for ICGLWVCLGHGF, 0.595 ± 0.067. The sequence ICSLLIRREELV had a protein stability index of 0.681 ± 0.081. As for ICSVHFLFFPLL, the protein stability index is 0.573 ± 0.014. As for IDASPRFRDFLF, the figure is 0.71 ± 0.022; as for IDLIKIKKKTKK, 0.786 ± 0.17. As for IDQTSKRCKRAC, the protein stability index amounted to 0.672 ± 0.018. Take IDYETIQKYKVE: the protein stability index stood at 0.633 ± 0.011. As for IEEQQKEKNRPK, the figure is 0.712 ± 0.027. In turn, IFGRLRELTCWT gave a protein stability index of 0.588 ± 0.034.

In turn, IFHLFPFDNPYD had a protein stability index of 0.8 ± 0.048.

As for IFMGSPYPRLPT, the protein stability index turned out to be 0.633 ± 0.018.

Sequence IFPLPPSSRLTP displayed a protein stability index of 0.6934 ± 0.0037. The result for IFWRGVVDVCSG reads 0.584 ± 0.065; that for IGATSMSREARY, 0.7052 ± 0.0017. As for IGCEVLQCRCVD, the protein stability index turned out to be 0.672 ± 0.014. IGRLQGWSSGDE registered a protein stability index of 0.688 ± 0.037. The result for IGRWGVRWKAVG reads 0.512 ± 0.053; that for IGSCLSRTRKRR, 0.6922 ± 0.0031; that for IHEGIKNENFKR, 0.71 ± 0.0053.

IHLQGSSYRSLT showed a protein stability index of 0.68 ± 0.14. Turning to IHQDGEQKETRK, the protein stability index stood at 0.6948 ± 0.0047.

For IHSPCAMRPLIS, the protein stability index amounted to 0.672 ± 0.0087.

Consider IHSRAAVGEYTG, for which the protein stability index amounted to 0.6425 ± 0.0046. As to IHTNICKSKDII, the protein stability index amounted to 0.706 ± 0.025.

IILDRQNRDLKY: the protein stability index came out at 0.634 ± 0.084. The sequence IINKRITKETDE came in with a protein stability index of 0.6738 ± 0.0023.

IINKRYEFRERT gave a protein stability index of 0.764 ± 0.03. Turning to IISQLEQSFISP, the protein stability index is 0.7402 ± 0.0056. The result for IKEITKENNRNE reads 0.708 ± 0.083; that for IKIKKKKKKKRD, 0.665 ± 0.012. Consider IKKEENKNENQE, for which the protein stability index turned out to be 0.6809 ± 0.0035. In the case of IKKRHQNGGKKE, the protein stability index came out at 0.65 ± 0.0085.

Regarding IKKRVTFSYDGK, the protein stability index amounted to 0.686 ± 0.062. In turn, IKMRKICLIGSM came in with a protein stability index of 0.603 ± 0.052.

Consider IKRVPRRSEYRG, for which the protein stability index stood at 0.633 ± 0.043. IKSTYRNPLPPL had a protein stability index of 0.657 ± 0.038. Consider IKYEKENNINKI, for which the protein stability index was 0.679 ± 0.039. ILCPIKHKRKGS showed a protein stability index of 0.703 ± 0.064.

ILFLGSLGCPGG came in with a protein stability index of 0.697 ± 0.019. As for ILGVVLRLCNCQ, the figure is 0.7834 ± 0.0055; as for ILIYFWFSFFFF, 0.753 ± 0.013.
